Test: Directed evolution of UGT76G1, conversion of Rebaudioside D to Rebaudioside M (round 1)
Format: biochemical
Details: 0.5 mM Rebaudioside D, 2.5 mM UDP-Glucose, 100 μL fresh lysate, 30° C., pH 7.2
Excerpt: Starting from the amino acid sequence of UGT76G1, as is described in Genbank (AAR06912.1), different mutations at various amino acid positions were identified that could alter the activity of the enzyme for the transformation of Rebaudioside D (Reb D) to Rebaudioside M (Reb M). This list of mutations, designed by DNA2.0 ProteinGPS™ strategy, was subsequently used to synthesize 96 variant genes that contained 3, 4 or 5 of these mutations that were codon-optimized for expression in E. coli. The genes were subcloned in the pET30a+ plasmid and used for transformation of E. coli BL21 (DE3) chemically competent cells. The obtained cells were grown in Petri-dishes on solid LB medium in the presence of Kanamycin. Suitable colonies were selected and allowed to grow in liquid LB medium in tubes. Glycerol was added to the suspension as cryoprotectant and 400 μL aliquots were stored at −20° C. and at −80° C.
These storage aliquots of E. coli BL21(DE3) containing the pET30a+_UGT76G1var plasmids were thawed and added to LBGKP medium (20 g/L Luria Broth Lennox; 50 mM PIPES buffer pH 7.00; 50 mM Phosphate buffer pH 7.00; 2.5 g/L glucose and 50 mg/L of Kanamycine). This culture was allowed to shake in a 96 microtiter plate at 135 rpm at 30° C. for 8 h.
3.95 mL of production medium containing 60 g/L of Overnight Express™ Instant TB medium (Novagen®), 10 g/L of glycerol and 50 mg/L of Kanamycin was inoculated with 50 μL of above described culture. In a 48 deepwell plate the resulting culture was allowed to stir at 20° C. The cultures gave significant growth and a good OD (600 nm; 1 cm) was obtained. After 44 h, the cells were harvested by centrifugation and frozen.
Lysis was performed by addition of Bugbuster® Master mix (Novagen®) to the thawed cells and the lysate was recovered by centrifugation. Activity tests were performed with 100 μL of fresh lysate that was added to a solution of Rebaudioside D (final concentration 0.5 mM), MgCl2 (final concentration 3 mM) and UDP-Glucose (final concentration 2.5 mM) in 50 mM phosphate buffer pH 7.2.
The reaction was allowed to run at 30° C. and samples were taken after 2, 4, 7 and 24 h. to determine conversion and initial rate by HPLC (CAD detection) using the analytical method that was described above for the transformation of Rebaudioside D to Rebaudioside M. The results are depicted in the following table.

| Molecule | Conversion Reb D to Reb M after 24 h (%) | initial rate (Reb M area/min) |
| --- | --- | --- |
| UGT76G1var29: UGT76G1 variant, mutations F22Y_V279I_N409R (protein, UniProt Q6VAB4 1-458, looked up, variant F22Y V279I N409R) UDP-glycosyltransferase 76G1: MENKTETTVRRRRRIILFPVPYQGHINPILQLANVLYSKGFSITIFHTNFNKPKTSNYPHFTFRFILDNDPQDERISNLPTHGPLAGMRIPIINEHGADELRRELELLMLASEEDEEVSCLITDALWYFAQSVADSLNLRRLVLMTSSLFNFHAHVSLPQFDELGYLDPDDKTRLEEQASGFPMLKVKDIKSAYSNWQILKEILGKMIKQTKASSGVIWNSFKELEESELETVIREIPAPSFLIPLPKHLTASSSSLLDHDRTVFQWLDQQPPSSVLYISFGSTSEVDEKDFLEIARGLVDSKQSFLWVVRPGFVKGSTWVEPLPDGFLGERGRIVKWVPQQEVLAHGAIGAFWTHSGWNSTLESVCEGVPMIFSDFGLDQPLNARYMSDVLKVGVYLENGWERGEIARAIRRVMVDEEGEYIRQNARVLKQKADVSLMKGGSSYESLESLVSYISSL | 41.0% | 2.9E+07 Reb M area/min |
| UGT76G1var32: UGT76G1 variant, mutations A239V_L243A_S375M (protein, UniProt Q6VAB4 1-458, looked up, variant A239V L243A S375M) UDP-glycosyltransferase 76G1: MENKTETTVRRRRRIILFPVPFQGHINPILQLANVLYSKGFSITIFHTNFNKPKTSNYPHFTFRFILDNDPQDERISNLPTHGPLAGMRIPIINEHGADELRRELELLMLASEEDEEVSCLITDALWYFAQSVADSLNLRRLVLMTSSLFNFHAHVSLPQFDELGYLDPDDKTRLEEQASGFPMLKVKDIKSAYSNWQILKEILGKMIKQTKASSGVIWNSFKELEESELETVIREIPVPSFAIPLPKHLTASSSSLLDHDRTVFQWLDQQPPSSVLYVSFGSTSEVDEKDFLEIARGLVDSKQSFLWVVRPGFVKGSTWVEPLPDGFLGERGRIVKWVPQQEVLAHGAIGAFWTHSGWNSTLESVCEGVPMIFMDFGLDQPLNARYMSDVLKVGVYLENGWERGEIANAIRRVMVDEEGEYIRQNARVLKQKADVSLMKGGSSYESLESLVSYISSL | 0.0% | −4.4E+04 Reb M area/min |
| UGT76G1var33: UGT76G1 variant, mutations A33G_R334H_Y397Q (protein, UniProt Q6VAB4 1-458, looked up, variant A33G R334H Y397Q) UDP-glycosyltransferase 76G1: MENKTETTVRRRRRIILFPVPFQGHINPILQLGNVLYSKGFSITIFHTNFNKPKTSNYPHFTFRFILDNDPQDERISNLPTHGPLAGMRIPIINEHGADELRRELELLMLASEEDEEVSCLITDALWYFAQSVADSLNLRRLVLMTSSLFNFHAHVSLPQFDELGYLDPDDKTRLEEQASGFPMLKVKDIKSAYSNWQILKEILGKMIKQTKASSGVIWNSFKELEESELETVIREIPAPSFLIPLPKHLTASSSSLLDHDRTVFQWLDQQPPSSVLYVSFGSTSEVDEKDFLEIARGLVDSKQSFLWVVRPGFVKGSTWVEPLPDGFLGERGHIVKWVPQQEVLAHGAIGAFWTHSGWNSTLESVCEGVPMIFSDFGLDQPLNARYMSDVLKVGVQLENGWERGEIANAIRRVMVDEEGEYIRQNARVLKQKADVSLMKGGSSYESLESLVSYISSL | 1.0% | 7.5E+06 Reb M area/min |
| UGT76G1var30: UGT76G1 variant, mutations I43V_E224A_S241I (protein, UniProt Q6VAB4 1-458, looked up, variant I43V E224A S241I) UDP-glycosyltransferase 76G1: MENKTETTVRRRRRIILFPVPFQGHINPILQLANVLYSKGFSVTIFHTNFNKPKTSNYPHFTFRFILDNDPQDERISNLPTHGPLAGMRIPIINEHGADELRRELELLMLASEEDEEVSCLITDALWYFAQSVADSLNLRRLVLMTSSLFNFHAHVSLPQFDELGYLDPDDKTRLEEQASGFPMLKVKDIKSAYSNWQILKEILGKMIKQTKASSGVIWNSFKALEESELETVIREIPAPIFLIPLPKHLTASSSSLLDHDRTVFQWLDQQPPSSVLYVSFGSTSEVDEKDFLEIARGLVDSKQSFLWVVRPGFVKGSTWVEPLPDGFLGERGRIVKWVPQQEVLAHGAIGAFWTHSGWNSTLESVCEGVPMIFSDFGLDQPLNARYMSDVLKVGVYLENGWERGEIANAIRRVMVDEEGEYIRQNARVLKQKADVSLMKGGSSYESLESLVSYISSL | 13.6% | 5.6E+06 Reb M area/min |
| UGT76G1var31: UGT76G1 variant, mutations E224D_L243P_V300A (protein, UniProt Q6VAB4 1-458, looked up, variant E224D L243P V300A) UDP-glycosyltransferase 76G1: MENKTETTVRRRRRIILFPVPFQGHINPILQLANVLYSKGFSITIFHTNFNKPKTSNYPHFTFRFILDNDPQDERISNLPTHGPLAGMRIPIINEHGADELRRELELLMLASEEDEEVSCLITDALWYFAQSVADSLNLRRLVLMTSSLFNFHAHVSLPQFDELGYLDPDDKTRLEEQASGFPMLKVKDIKSAYSNWQILKEILGKMIKQTKASSGVIWNSFKDLEESELETVIREIPAPSFPIPLPKHLTASSSSLLDHDRTVFQWLDQQPPSSVLYVSFGSTSEVDEKDFLEIARGLADSKQSFLWVVRPGFVKGSTWVEPLPDGFLGERGRIVKWVPQQEVLAHGAIGAFWTHSGWNSTLESVCEGVPMIFSDFGLDQPLNARYMSDVLKVGVYLENGWERGEIANAIRRVMVDEEGEYIRQNARVLKQKADVSLMKGGSSYESLESLVSYISSL | 0.4% | 2.4E+05 Reb M area/min |
| UGT76G1var34: UGT76G1 variant, mutations I43V_T284I_I295T (protein, UniProt Q6VAB4 1-458, looked up, variant I43V T284I I295T) UDP-glycosyltransferase 76G1: MENKTETTVRRRRRIILFPVPFQGHINPILQLANVLYSKGFSVTIFHTNFNKPKTSNYPHFTFRFILDNDPQDERISNLPTHGPLAGMRIPIINEHGADELRRELELLMLASEEDEEVSCLITDALWYFAQSVADSLNLRRLVLMTSSLFNFHAHVSLPQFDELGYLDPDDKTRLEEQASGFPMLKVKDIKSAYSNWQILKEILGKMIKQTKASSGVIWNSFKELEESELETVIREIPAPSFLIPLPKHLTASSSSLLDHDRTVFQWLDQQPPSSVLYVSFGSISEVDEKDFLETARGLVDSKQSFLWVVRPGFVKGSTWVEPLPDGFLGERGRIVKWVPQQEVLAHGAIGAFWTHSGWNSTLESVCEGVPMIFSDFGLDQPLNARYMSDVLKVGVYLENGWERGEIANAIRRVMVDEEGEYIRQNARVLKQKADVSLMKGGSSYESLESLVSYISSL | 3.4% | 1.5E+06 Reb M area/min |
| UGT76G1var35: UGT76G1 variant, mutations T284L_F314S_S357N (protein, UniProt Q6VAB4 1-458, looked up, variant T284L F314S S357N) UDP-glycosyltransferase 76G1: MENKTETTVRRRRRIILFPVPFQGHINPILQLANVLYSKGFSITIFHTNFNKPKTSNYPHFTFRFILDNDPQDERISNLPTHGPLAGMRIPIINEHGADELRRELELLMLASEEDEEVSCLITDALWYFAQSVADSLNLRRLVLMTSSLFNFHAHVSLPQFDELGYLDPDDKTRLEEQASGFPMLKVKDIKSAYSNWQILKEILGKMIKQTKASSGVIWNSFKELEESELETVIREIPAPSFLIPLPKHLTASSSSLLDHDRTVFQWLDQQPPSSVLYVSFGSLSEVDEKDFLEIARGLVDSKQSFLWVVRPGSVKGSTWVEPLPDGFLGERGRIVKWVPQQEVLAHGAIGAFWTHNGWNSTLESVCEGVPMIFSDFGLDQPLNARYMSDVLKVGVYLENGWERGEIANAIRRVMVDEEGEYIRQNARVLKQKADVSLMKGGSSYESLESLVSYISSL | 0.5% | 1.8E+05 Reb M area/min |
